Data reported in the supplement of paper PMC9112550, “Optimization of the antimicrobial peptide Bac7 by deep mutational scanning” (BMC Biology, 2022).

These sequences were tested on Escherichia coli TOP10 (assay: shrunken log2 fold change of peptide-encoding DNA abundance (4.5 h post-induction vs induction); higher = less antimicrobial activity (less host growth inhibition)). Conditions: time post-induction: 4.5 h; library: site-saturation at positions 5, 18, 19, 20.
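Also: peptides expressed intracellularly from a pBAD plasmid library in pooled LB shake-flask culture, induced with 0.3% L-arabinose, DNA abundance read by NGS, three biological replicates, DESeq2 with apeglm shrinkage.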

| Sequence | shrunken log2 fold change |
| --- | --- |
| RRIRERPPRLPRPRPRPESFPRP | 0.0447 |
| RRIRSRPPRLPRPRPRPCWQPRP | -0.00872 |
| RRIRLRPPRLPRPRPRPDYAPRP | -0.224 |
| RRIRARPPRLPRPRPRPANPPRP | 0.425 |
| RRIRKRPPRLPRPRPRPKSQPRP | 0.109 |
| RRIRCRPPRLPRPRPRPSAEPRP | 0.153 |
| RRIRVRPPRLPRPRPRPFYIPRP | -0.457 |
| RRIRFRPPRLPRPRPRPNWYPRP | -0.542 |
| RRIRHRPPRLPRPRPRPVNCPRP | 0.00367 |
| RRIRVRPPRLPRPRPRPWAVPRP | 0.157 |
| RRIRCRPPRLPRPRPRPFKIPRP | -0.6 |
| RRIRGRPPRLPRPRPRPFHPPRP | -0.124 |
| RRIRCRPPRLPRPRPRPSYLPRP | -1 |
| RRIRDRPPRLPRPRPRPNIHPRP | -0.214 |
| RRIRLRPPRLPRPRPRPWANPRP | 0.0875 |
| RRIRERPPRLPRPRPRPTQKPRP | 0.337 |
| RRIRGRPPRLPRPRPRPGEYPRP | 0.3 |
| RRIRIRPPRLPRPRPRPLSYPRP | -0.528 |
| RRIRDRPPRLPRPRPRPRCCPRP | 0.18 |
| RRIRLRPPRLPRPRPRPAIPPRP | -0.0222 |
| RRIRDRPPRLPRPRPRPMTHPRP | 0.0105 |
| RRIRERPPRLPRPRPRPRLLPRP | -0.335 |
| RRIRKRPPRLPRPRPRPYWNPRP | -0.106 |
| RRIRTRPPRLPRPRPRPTREPRP | -0.157 |
| RRIRQRPPRLPRPRPRPWHGPRP | 0.0373 |

| Sequence | shrunken log2 fold change |
| --- | --- |
| RRIRIRPPRLPRPRPRPFEHPRP | -0.321 |
| RRIRIRPPRLPRPRPRPCIDPRP | -0.0398 |
| RRIRERPPRLPRPRPRPTTWPRP | 0.0447 |
| RRIRPRPPRLPRPRPRPYMHPRP | -0.493 |
| RRIRRRPPRLPRPRPRPSIYPRP | -0.449 |
| RRIRQRPPRLPRPRPRPCESPRP | -0.0107 |
| RRIRKRPPRLPRPRPRPKNYPRP | 0.0189 |
| RRIRPRPPRLPRPRPRPFECPRP | -0.242 |
| RRIRNRPPRLPRPRPRPLLWPRP | 0.369 |
| RRIRDRPPRLPRPRPRPHFYPRP | -0.321 |
| RRIRKRPPRLPRPRPRPYMNPRP | -0.505 |
| RRIRERPPRLPRPRPRPAHRPRP | 0.0394 |
| RRIRGRPPRLPRPRPRPYGDPRP | -0.176 |
| RRIRYRPPRLPRPRPRPEYYPRP | -0.0128 |
| RRIRYRPPRLPRPRPRPWAMPRP | -0.00232 |
| RRIRVRPPRLPRPRPRPNTMPRP | -0.293 |
| RRIRFRPPRLPRPRPRPVVNPRP | -0.026 |
| RRIRGRPPRLPRPRPRPWTAPRP | 0.172 |
| RRIRTRPPRLPRPRPRPCKVPRP | -0.233 |
| RRIRQRPPRLPRPRPRPRYSPRP | -0.192 |
| RRIRWRPPRLPRPRPRPPHTPRP | 0.494 |
| RRIRFRPPRLPRPRPRPCDVPRP | 0.0119 |
| RRIRERPPRLPRPRPRPIDAPRP | 0.0409 |
| RRIRFRPPRLPRPRPRPNFVPRP | -0.269 |
| RRIRKRPPRLPRPRPRPWCKPRP | -0.188 |

| Sequence | shrunken log2 fold change |
| --- | --- |
| RRIRERPPRLPRPRPRPAWHPRP | 0.324 |
| RRIRPRPPRLPRPRPRPRAPPRP | 0.683 |
| RRIRCRPPRLPRPRPRPPCHPRP | 0.3 |
| RRIRTRPPRLPRPRPRPKTRPRP | 0.221 |
| RRIRRRPPRLPRPRPRPPSCPRP | 0.301 |
| RRIRCRPPRLPRPRPRPVPQPRP | 0.0921 |
| RRIRIRPPRLPRPRPRPKCTPRP | -0.233 |
| RRIRIRPPRLPRPRPRPILGPRP | -0.0266 |
| RRIRPRPPRLPRPRPRPTHGPRP | 0.478 |
| RRIRGRPPRLPRPRPRPCPEPRP | -0.0446 |
| RRIRTRPPRLPRPRPRPRTDPRP | -0.0849 |
| RRIRNRPPRLPRPRPRPNKMPRP | -0.0283 |
| RRIRWRPPRLPRPRPRPNPCPRP | -0.0647 |
| RRIRHRPPRLPRPRPRPYKEPRP | -0.00664 |
| RRIRFRPPRLPRPRPRPPTGPRP | 0.217 |
| RRIRTRPPRLPRPRPRPIVKPRP | -0.144 |
| RRIRPRPPRLPRPRPRPLNNPRP | -0.541 |
| RRIRQRPPRLPRPRPRPPDSPRP | 0.377 |
| RRIRCRPPRLPRPRPRPGNMPRP | -0.368 |
| RRIRERPPRLPRPRPRPQVCPRP | -0.245 |
| RRIRVRPPRLPRPRPRPFHGPRP | 0.162 |
| RRIRCRPPRLPRPRPRPRYFPRP | -0.529 |
| RRIRIRPPRLPRPRPRPHKHPRP | -0.881 |
| RRIRYRPPRLPRPRPRPVDRPRP | -0.126 |
| RRIRQRPPRLPRPRPRPSNCPRP | -0.136 |

| Sequence | shrunken log2 fold change |
| --- | --- |
| RRIRGRPPRLPRPRPRPWKYPRP | -0.115 |
| RRIRDRPPRLPRPRPRPQEHPRP | -0.0802 |
| RRIRMRPPRLPRPRPRPPHKPRP | 0.585 |
| RRIRARPPRLPRPRPRPVIYPRP | -0.308 |
| RRIRNRPPRLPRPRPRPNEEPRP | -0.00613 |
| RRIRCRPPRLPRPRPRPPRRPRP | 0.909 |
| RRIRLRPPRLPRPRPRPLTFPRP | -0.633 |
| RRIRPRPPRLPRPRPRPVCEPRP | 0.227 |
| RRIRSRPPRLPRPRPRPCMNPRP | -0.206 |
| RRIRTRPPRLPRPRPRPEKDPRP | -0.271 |
| RRIRNRPPRLPRPRPRPSLHPRP | -0.621 |
| RRIRHRPPRLPRPRPRPACCPRP | -0.0888 |
| RRIRIRPPRLPRPRPRPMDYPRP | -0.00141 |
| RRIRPRPPRLPRPRPRPVKIPRP | 0.154 |
| RRIRQRPPRLPRPRPRPIATPRP | -0.0607 |
| RRIRERPPRLPRPRPRPEITPRP | -0.045 |
| RRIRMRPPRLPRPRPRPKTFPRP | 0.0371 |
| RRIRMRPPRLPRPRPRPKYFPRP | -0.186 |
| RRIRDRPPRLPRPRPRPGGYPRP | 0.101 |
| RRIRQRPPRLPRPRPRPWHCPRP | -0.0682 |
| RRIRTRPPRLPRPRPRPGREPRP | 0.0772 |
| RRIRQRPPRLPRPRPRPIAEPRP | -0.103 |
| RRIRFRPPRLPRPRPRPLPCPRP | -0.199 |
| RRIRDRPPRLPRPRPRPHNKPRP | -0.373 |
| RRIRWRPPRLPRPRPRPRKEPRP | 0.0466 |

| Sequence | shrunken log2 fold change |
| --- | --- |
| RRIRFRPPRLPRPRPRPVNIPRP | -0.16 |
| RRIRRRPPRLPRPRPRPNLAPRP | 0.176 |
| RRIRYRPPRLPRPRPRPMFMPRP | -1.22 |
| RRIRCRPPRLPRPRPRPSWTPRP | -0.532 |
| RRIRIRPPRLPRPRPRPDEDPRP | -0.00875 |
| RRIRQRPPRLPRPRPRPMFLPRP | -0.38 |
| RRIRLRPPRLPRPRPRPTLHPRP | 0.18 |
| RRIRERPPRLPRPRPRPICCPRP | -0.133 |
| RRIRIRPPRLPRPRPRPEPVPRP | 0.14 |
| RRIRYRPPRLPRPRPRPMTGPRP | 0.0192 |
| RRIRARPPRLPRPRPRPPGKPRP | 0.188 |
| RRIRVRPPRLPRPRPRPYTVPRP | -0.0784 |
| RRIRRRPPRLPRPRPRPGNGPRP | 0.372 |
| RRIRMRPPRLPRPRPRPMKVPRP | 0.0398 |
| RRIRTRPPRLPRPRPRPFHTPRP | -0.932 |
| RRIRNRPPRLPRPRPRPPKIPRP | 0.0999 |
| RRIRVRPPRLPRPRPRPRNLPRP | 0.107 |
| RRIRFRPPRLPRPRPRPRAQPRP | 0.191 |
| RRIRVRPPRLPRPRPRPRHHPRP | -0.0962 |
| RRIRTRPPRLPRPRPRPEFFPRP | -0.0853 |
| RRIRRRPPRLPRPRPRPCCIPRP | -0.179 |
| RRIRQRPPRLPRPRPRPRTIPRP | 0.122 |
| RRIRSRPPRLPRPRPRPDKWPRP | 0.858 |
| RRIRDRPPRLPRPRPRPAPNPRP | 0.138 |
| RRIRERPPRLPRPRPRPPMMPRP | -0.0743 |

| Sequence | shrunken log2 fold change |
| --- | --- |
| RRIRSRPPRLPRPRPRPYKLPRP | -0.399 |
| RRIRNRPPRLPRPRPRPVKEPRP | -0.0182 |
| RRIRERPPRLPRPRPRPWVTPRP | -0.0915 |
| RRIRNRPPRLPRPRPRPHQFPRP | -0.000243 |
| RRIRSRPPRLPRPRPRPCSCPRP | 0.000754 |
| RRIRNRPPRLPRPRPRPPQVPRP | 0.0214 |
| RRIRLRPPRLPRPRPRPYYPPRP | -0.117 |
| RRIRQRPPRLPRPRPRPCTLPRP | -0.56 |
| RRIRFRPPRLPRPRPRPGNMPRP | -0.198 |
| RRIRMRPPRLPRPRPRPWPQPRP | 0.729 |
| RRIRRRPPRLPRPRPRPASRPRP | 0.202 |
| RRIRFRPPRLPRPRPRPKETPRP | -0.0433 |
| RRIRGRPPRLPRPRPRPRRMPRP | 0.706 |
| RRIRCRPPRLPRPRPRPNQPPRP | -0.0425 |
| RRIRGRPPRLPRPRPRPQNMPRP | -0.399 |
| RRIRNRPPRLPRPRPRPLIEPRP | -0.284 |
| RRIRFRPPRLPRPRPRPRCYPRP | -0.473 |
| RRIRSRPPRLPRPRPRPRFQPRP | 0.233 |
| RRIRYRPPRLPRPRPRPFHDPRP | -0.195 |
| RRIRHRPPRLPRPRPRPTCVPRP | 0.134 |
| RRIRDRPPRLPRPRPRPFVEPRP | -0.0362 |
| RRIRIRPPRLPRPRPRPASEPRP | 0.149 |
| RRIRQRPPRLPRPRPRPEAPPRP | 0.6 |
| RRIRSRPPRLPRPRPRPHMDPRP | -0.427 |
| RRIRFRPPRLPRPRPRPQNYPRP | -0.502 |
